Entries after “also recorded” stand apart in the source; their conditions may differ. Where two headings read alike, the source gives them in different places. Square brackets hold non-standard residues; d marks the D form. Peptide text beside a SMILES is read from it.
Key:
recombinant mouse PrP [1] = target: T1, recombinant mouse PrP (Mus musculus, UniProt P04925); assay: biochemical; format: binding
PrP^C and PrP^Sc = PrP^C and PrP^Sc (Mus musculus, UniProt P04925); format: binding
ScN2a cells = format: cell-based, murine
PrP = PrP (Mus musculus, UniProt P04925); parameters: species or system 129 SvEv mice; details: in vivo
PrP^Sc in ScN2a cells [2] = tested on: PrP^Sc in ScN2a cells
recombinant mouse PrP [3] = target: T1, recombinant mouse PrP; format: binding
Target sequence in this assay (P04925 23-230 limits assumed): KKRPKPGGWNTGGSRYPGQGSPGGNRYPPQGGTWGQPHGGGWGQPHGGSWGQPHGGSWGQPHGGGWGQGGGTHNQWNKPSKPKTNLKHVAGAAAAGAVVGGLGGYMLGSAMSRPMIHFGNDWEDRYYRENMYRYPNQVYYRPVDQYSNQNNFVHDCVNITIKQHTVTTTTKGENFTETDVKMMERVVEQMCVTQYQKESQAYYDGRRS

scrapie (RML) prions [4] = tested on: scrapie (RML) prions; parameters: species or system CD1 mice; details: in vivo
[5] = tested on: prions in treated ScN2a cells; parameters: species or system tg20 mice; details: mouse, in vivo
scrapie (RML) prions [6] = tested on: scrapie (RML) prions; parameters: species or system C57/B6 mice; details: mouse, in vivo, ip
[7] = tested on: MBPAc1-11 T cell receptor transgenic CD4+ T cells; format: cell-based, mouse
PrP^Sc in ScN2a cells [8] = tested on: PrP^Sc in ScN2a cells; remark: listed apart in the source
recombinant mouse PrP [9] = target: T1, recombinant mouse PrP
[10] = target: sheep PrP^C and sheep prions (Ovis aries, UniProt P23907)

Sequence of PrP (P04925 23-230 limits assumed): as above

CSCC[C@@H](NC(=O)[C@@H](CC(=O)O)NC(=O)[C@@H](Cc1ccc(O)cc1)NC(=O)[C@@H](Cc1c[nH]c2ccccc12)NC(=O)CN)C(=O)N[C@H](C)C(=O)N[C@H](CC(=O)O)C(=O)N[C@H](CCCNC(=N)N)C(=O)N[C@H](CCC(=O)O)C(=O)N[C@H](Cc1c[nH]c2ccccc12)C(=O)N[C@H](CC(N)=O)C(=O)N[C@H](Cc1c[nH]c2ccccc12)C(=O)N[C@H](CCCNC(=N)N)C(=O)N[C@H](C)C(=O)N[C@H](CS)C(=O)N[C@H](Cc1ccccc1)C(=O)N[C@H](Cc1ccc(O)cc1)C(=O)O [(D-)riCDR3H, gwydmadrewnwracfy] (H-G[dW][dY][dD][dM][dA][dD][dR][dE][dW][dN][dW][dR][dA][dC][dF][dY]-OH)
Kd (recombinant mouse PrP [1]): 1000 to 10000 nM
PrP conformer recognized by immunoprecipitation / pull-down (PrP^C and PrP^Sc): pulled down only PrP^Sc in a conformation-specific manner; also recorded: pulled down only PrP from scrapie-infected homogenates
competition of staining by scFvW226 (ScN2a cells): could be competed by scFvW226
staining pattern of live ScN2a cells (ScN2a cells): staining all over the cell
overcoming self tolerance of humoral immune response against PrP (PrP): able to overcome self tolerance of humoral immune response against PrP
antiprion activity (prion clearing) of fragments (PrP^Sc in ScN2a cells [2]): reinstated antiprion activity
concentration at which antiprion activity was exhibited (PrP^Sc in ScN2a cells [2]): 4 µM

H-YFCARWNWERDAMDYWG-OH [CDR3H]
PrP conformer recognized by immunoprecipitation / pull-down (PrP^C and PrP^Sc): conformation-specific recognition of only PrP^Sc; also recorded: pulled down only PrP^Sc in a conformation-specific manner; also recorded: pulled down only PrP from scrapie-infected homogenates
binding by enzyme-linked immunosorbent assay (recombinant mouse PrP [3]): weak binding to recombinant mouse PrP
competition of staining by scFvW226 (ScN2a cells): could be competed by scFvW226
digestion by trypsin / protease resistance (ScN2a cells): could be digested by trypsin
staining pattern of live ScN2a cells (ScN2a cells): stained only intracellular compartments
survival of the one surviving immunized mouse (scrapie (RML) prions [4]; ip): > 10 months
protection from prion disease (scrapie (RML) prions [4]; mouse): able to protect from prion disease
average incubation time of the four immunized mice that died (scrapie (RML) prions [4]; mouse, ip): 205 days
clones that only recognized the immunogen (PrP): 8
hybridoma secreting mABs recognizing both the immunogen and mouse PrP (PrP): 28

B1: scFvW226: scFv: variable heavy and light chain domains of W226 connected by (Gly4Ser)3-linker, C-terminal myc- and his6-tags; SEQ ID NO:6 (protein)
scFv: MKYLLPTAAAGLLLLAAQPAMAMAEVQLQQSGAELARPGTSVNLSCKTSGYSFTGYGVSWVKQRIGQGLEWIGEIYPRSGNTYYNEKFKGKATLTADKSSNTAYMELRSLTSEDSAVYFCARWNWERDAMDYWGQGTSVTVSSAKTTPPSDYPLAGGGGSGGGGSGGGGSDIVMTQTPLSLPVSLGDQASISCRSSQSLESSSGYPHLNWYLQKPGQSPQLLIYRVSNRFSGVLDRFSGSGSGTDFTLQISRVEAEDLGVYFCLQITHVPWTFGGGTKLEIKRADAAPTVSAAEEQKLISEEDLEHHHHHH
modifications: C-terminal myc and His6 tags; scFv
PrP conformer recognized by immunoprecipitation / pull-down (PrP^C and PrP^Sc): recognizes both PrP^C and PrP^Sc; also recorded: could precipitate both PrP^C and PrP^Sc; also recorded: immunoprecipitated both PrP^C and PrP^Sc
number of sick n/n0 [5]: 0/5
survival time (scrapie (RML) prions [6]): significant effect on increasing the survival time
weight loss (scrapie (RML) prions [6]): none of the treated mice experienced any weight loss
T cell proliferation [7]: augmented proliferation of Ag-specific T cells; also recorded: increased T cell proliferation
antiprion activity (PrP^Sc in ScN2a cells [2]): antiprion active
concentrations with prion-clearing effects (PrP^Sc in ScN2a cells [2]): > 3.2 nM
minimal / smallest effective concentration clearing prions (PrP^Sc in ScN2a cells [2]): 4 nM
antiprion effect after transfection into ScN2a cells (PrP^Sc in ScN2a cells [8]): clear time-dependent antiprion effect
antiprion effect of conditioned medium of transfected N2a cells (PrP^Sc in ScN2a cells [8]): prions were cleared
binding activity to recombinant mouse PrP after heat incubation (recombinant mouse PrP [9]): retained binding activity
binding activity to recombinant mouse PrP after serum incubation (recombinant mouse PrP [9]): retained binding activity

B2: mAB W226 (antibody, V domains shown)
VH: EVQLQQSGAELARPGTSVNLSCKTSGYSFTGYGVSWVKQRIGQGLEWIGEIYPRSGNTYYNEKFKGKATLTADKSSNTAYMELRSLTSEDSAVYFCARWNWERDAMDYWGQGTSVTVSSAKTTPPSDYPLA
VL: DIVMTQTPLSLPVSLGDQASISCRSSQSLESSSGYPHLNWYLQKPGQSPQLLIYRVSNRFSGVLDRFSGSGSGTDFTLQISRVEAEDLGVYFCLQITHVPWTFGGGTKLEIKRADAAPTVSAA
Kd (recombinant mouse PrP [1]; read-out: KD): 0.5 nM
PrP conformer recognized by immunoprecipitation / pull-down (PrP^C and PrP^Sc): pulls down readily PrP^C from mouse brain homogenates; also recorded: binding to both PrP^C and PrP^Sc was detected
survival time (scrapie (RML) prions [6]): significant effect on increasing the survival time
weight loss (scrapie (RML) prions [6]): none of the treated mice experienced any weight loss
T cell proliferation [7]: augmented proliferation of Ag-specific T cells; also recorded: increased T cell proliferation
binding of PrP^C from normal sheep homogenate [10]: weak binding of PrP^C from normal sheep homogenate

Reference: patent publication US8852587B2 (priority 2008, dated 2014)
